{"source": "patent US20070128623A1", "target": "GST-tagged PLD1-PX", "assay": "AFM force measurement; GST-Munc-18-1 on dendron-modified tip, GST-PLD1-PX on dendron-modified Si wafer", "data": [{"substance": "GST-tagged Munc-18-1", "values": [{"measurement": "binding force", "value": 50, "unit": "pN"}]}]}
